These results are taken from US20180273587A1 (AILERON THERAPEUTICS, published 2018).

Positions of bridges follow the written chain, without caps; N, C: chain ends. Non-standard residues stand in square brackets, D forms with d. hCha = N[C@@H](CCC1CCCCC1)C(=O)O; hPhe = N[C@@H](CCc1ccccc1)C(=O)O; R8 = C=CCCCCCC[C@@](C)(N)C(=O)O; αMeD = C[C@](N)(CC(=O)O)C(=O)O; S5 = C=CCCC[C@](C)(N)C(=O)O

The chains are these.
B1: SEQ ID NO: 1673 (peptide)
peptide: Ac-IWIAQALA[R8]IGDAFN[S5]YYA-NH2
modifications: staple 9-16
SMILES: CC[C@H](C)[C@H](NC(C)=O)C(=O)N[C@@H](Cc1c[nH]c2ccccc12)C(=O)N[C@H](C(=O)N[C@@H](C)C(=O)N[C@@H](CCC(N)=O)C(=O)N[C@@H](C)C(=O)N[C@@H](CC(C)C)C(=O)N[C@@H](C)C(=O)N[C@]1(C)CCCCCCC=CCCC[C@@](C)(C(=O)N[C@@H](Cc2ccc(O)cc2)C(=O)N[C@@H](Cc2ccc(O)cc2)C(=O)N[C@@H](C)C(N)=O)NC(=O)[C@H](CC(N)=O)NC(=O)[C@H](Cc2ccccc2)NC(=O)[C@H](C)NC(=O)[C@H](CC(=O)O)NC(=O)CNC(=O)[C@H]([C@@H](C)CC)NC1=O)[C@@H](C)CC
B2: SEQ ID NO: 1692 (peptide)
peptide: Ac-IWIAQA[hPhe]R[R8]IGDAFN[S5]YYA-NH2
modifications: staple 9-16
SMILES: CC[C@H](C)[C@H](NC(C)=O)C(=O)N[C@@H](Cc1c[nH]c2ccccc12)C(=O)N[C@H](C(=O)N[C@@H](C)C(=O)N[C@@H](CCC(N)=O)C(=O)N[C@@H](C)C(=O)N[C@@H](CCc1ccccc1)C(=O)N[C@@H](CCCNC(=N)N)C(=O)N[C@]1(C)CCCCCCC=CCCC[C@@](C)(C(=O)N[C@@H](Cc2ccc(O)cc2)C(=O)N[C@@H](Cc2ccc(O)cc2)C(=O)N[C@@H](C)C(N)=O)NC(=O)[C@H](CC(N)=O)NC(=O)[C@H](Cc2ccccc2)NC(=O)[C@H](C)NC(=O)[C@H](CC(=O)O)NC(=O)CNC(=O)[C@H]([C@@H](C)CC)NC1=O)[C@@H](C)CC
notes: also called Ac-IWIAQAhFR$r8IGDAFN$YYA-NH2
B3: SEQ ID NO: 1690 (peptide)
peptide: Ac-IWIAQA[hCha]R[R8]IGDAFN[S5]YYA-NH2
modifications: staple 9-16
SMILES: CC[C@H](C)[C@H](NC(C)=O)C(=O)N[C@@H](Cc1c[nH]c2ccccc12)C(=O)N[C@H](C(=O)N[C@@H](C)C(=O)N[C@@H](CCC(N)=O)C(=O)N[C@@H](C)C(=O)N[C@@H](CCC1CCCCC1)C(=O)N[C@@H](CCCNC(=N)N)C(=O)N[C@]1(C)CCCCCCC=CCCC[C@@](C)(C(=O)N[C@@H](Cc2ccc(O)cc2)C(=O)N[C@@H](Cc2ccc(O)cc2)C(=O)N[C@@H](C)C(N)=O)NC(=O)[C@H](CC(N)=O)NC(=O)[C@H](Cc2ccccc2)NC(=O)[C@H](C)NC(=O)[C@H](CC(=O)O)NC(=O)CNC(=O)[C@H]([C@@H](C)CC)NC1=O)[C@@H](C)CC
notes: also called Ac-IWIAQAhChaR$r8IGDAFN$YYA-NH2
B4: SEQ ID NO: 1635 (peptide)
peptide: Ac-IAQALR[R8]IGDAFN[S5]YYA-NH2
modifications: staple 7-14
SMILES: CC[C@H](C)[C@H](NC(C)=O)C(=O)N[C@@H](C)C(=O)N[C@@H](CCC(N)=O)C(=O)N[C@@H](C)C(=O)N[C@@H](CC(C)C)C(=O)N[C@@H](CCCNC(=N)N)C(=O)N[C@]1(C)CCCCCCC=CCCC[C@@](C)(C(=O)N[C@@H](Cc2ccc(O)cc2)C(=O)N[C@@H](Cc2ccc(O)cc2)C(=O)N[C@@H](C)C(N)=O)NC(=O)[C@H](CC(N)=O)NC(=O)[C@H](Cc2ccccc2)NC(=O)[C@H](C)NC(=O)[C@H](CC(=O)O)NC(=O)CNC(=O)[C@H]([C@@H](C)CC)NC1=O
notes: also called Ac-IAQALR$r8IGDAFN$YYA-NH2
B5: SEQ ID NO: 1640 (peptide)
peptide: Ac-IAQALR[R8]IGDAFN[S5]AYA-NH2
modifications: staple 7-14
SMILES: CC[C@H](C)[C@H](NC(C)=O)C(=O)N[C@@H](C)C(=O)N[C@@H](CCC(N)=O)C(=O)N[C@@H](C)C(=O)N[C@@H](CC(C)C)C(=O)N[C@@H](CCCNC(=N)N)C(=O)N[C@]1(C)CCCCCCC=CCCC[C@@](C)(C(=O)N[C@@H](C)C(=O)N[C@@H](Cc2ccc(O)cc2)C(=O)N[C@@H](C)C(N)=O)NC(=O)[C@H](CC(N)=O)NC(=O)[C@H](Cc2ccccc2)NC(=O)[C@H](C)NC(=O)[C@H](CC(=O)O)NC(=O)CNC(=O)[C@H]([C@@H](C)CC)NC1=O
notes: also called Ac-IAQALR$r8IGDAFN$AYA-NH2
B6: SEQ ID NO: 1631 (peptide)
peptide: Ac-IAQALR[R8]IGDAFA[S5]YYA-NH2
modifications: staple 7-14
SMILES: CC[C@H](C)[C@H](NC(C)=O)C(=O)N[C@@H](C)C(=O)N[C@@H](CCC(N)=O)C(=O)N[C@@H](C)C(=O)N[C@@H](CC(C)C)C(=O)N[C@@H](CCCNC(=N)N)C(=O)N[C@]1(C)CCCCCCC=CCCC[C@@](C)(C(=O)N[C@@H](Cc2ccc(O)cc2)C(=O)N[C@@H](Cc2ccc(O)cc2)C(=O)N[C@@H](C)C(N)=O)NC(=O)[C@H](C)NC(=O)[C@H](Cc2ccccc2)NC(=O)[C@H](C)NC(=O)[C@H](CC(=O)O)NC(=O)CNC(=O)[C@H]([C@@H](C)CC)NC1=O
notes: also called Ac-IAQALR$r8IGDAFA$YYA-NH2
B7: SEQ ID NO: 1636 (peptide)
peptide: Ac-IAAALR[R8]IGDAFN[S5]YYA-NH2
modifications: staple 7-14
SMILES: CC[C@H](C)[C@H](NC(C)=O)C(=O)N[C@@H](C)C(=O)N[C@@H](C)C(=O)N[C@@H](C)C(=O)N[C@@H](CC(C)C)C(=O)N[C@@H](CCCNC(=N)N)C(=O)N[C@]1(C)CCCCCCC=CCCC[C@@](C)(C(=O)N[C@@H](Cc2ccc(O)cc2)C(=O)N[C@@H](Cc2ccc(O)cc2)C(=O)N[C@@H](C)C(N)=O)NC(=O)[C@H](CC(N)=O)NC(=O)[C@H](Cc2ccccc2)NC(=O)[C@H](C)NC(=O)[C@H](CC(=O)O)NC(=O)CNC(=O)[C@H]([C@@H](C)CC)NC1=O
notes: also called Ac-IAAALR$r8IGDAFN$YYA-NH2
B8: SEQ ID NO: 1638 (peptide)
peptide: Ac-IAQALR[R8]IADAFN[S5]YYA-NH2
modifications: staple 7-14
SMILES: CC[C@H](C)[C@H](NC(C)=O)C(=O)N[C@@H](C)C(=O)N[C@@H](CCC(N)=O)C(=O)N[C@@H](C)C(=O)N[C@@H](CC(C)C)C(=O)N[C@@H](CCCNC(=N)N)C(=O)N[C@]1(C)CCCCCCC=CCCC[C@@](C)(C(=O)N[C@@H](Cc2ccc(O)cc2)C(=O)N[C@@H](Cc2ccc(O)cc2)C(=O)N[C@@H](C)C(N)=O)NC(=O)[C@H](CC(N)=O)NC(=O)[C@H](Cc2ccccc2)NC(=O)[C@H](C)NC(=O)[C@H](CC(=O)O)NC(=O)[C@H](C)NC(=O)[C@H]([C@@H](C)CC)NC1=O
notes: also called Ac-IAQALR$r8IADAFN$YYA-NH2
B9: SEQ ID NO: 1629 (peptide)
peptide: Ac-IWIAQELR[R8]IGDEFN[S5]YYARR-NH2
modifications: staple 9-16
SMILES: CC[C@H](C)[C@H](NC(C)=O)C(=O)N[C@@H](Cc1c[nH]c2ccccc12)C(=O)N[C@H](C(=O)N[C@@H](C)C(=O)N[C@@H](CCC(N)=O)C(=O)N[C@@H](CCC(=O)O)C(=O)N[C@@H](CC(C)C)C(=O)N[C@@H](CCCNC(=N)N)C(=O)N[C@]1(C)CCCCCCC=CCCC[C@@](C)(C(=O)N[C@@H](Cc2ccc(O)cc2)C(=O)N[C@@H](Cc2ccc(O)cc2)C(=O)N[C@@H](C)C(=O)N[C@@H](CCCNC(=N)N)C(=O)N[C@@H](CCCNC(=N)N)C(N)=O)NC(=O)[C@H](CC(N)=O)NC(=O)[C@H](Cc2ccccc2)NC(=O)[C@H](CCC(=O)O)NC(=O)[C@H](CC(=O)O)NC(=O)CNC(=O)[C@H]([C@@H](C)CC)NC1=O)[C@@H](C)CC
B10: SEQ ID NO: 1688 (peptide)
peptide: Ac-IWIAQA[hhL]R[R8]IGDAFN[S5]YYA-NH2
modifications: staple 9-16
notes: also called Ac-IWIAQAhhLR$r8IGDAFN$YYA-NH2
B11: SEQ ID NO: 1656 (peptide)
peptide: IWIAQALXAIGDQFNAYYA
modifications: not fully specified; Ac- at N-terminus; -NH2 at C-terminus; $r8 at 9 and $ at 16 joined by all-carbon crosslinker; Cit (citrulline) at 8
B12: SEQ ID NO: 1709 (peptide)
peptide: Ac-IWIAQALR[R8]IG[αMeD]AFN[S5]YYA-NH2
modifications: staple 9-16
SMILES: CC[C@H](C)[C@H](NC(C)=O)C(=O)N[C@@H](Cc1c[nH]c2ccccc12)C(=O)N[C@H](C(=O)N[C@@H](C)C(=O)N[C@@H](CCC(N)=O)C(=O)N[C@@H](C)C(=O)N[C@@H](CC(C)C)C(=O)N[C@@H](CCCNC(=N)N)C(=O)N[C@]1(C)CCCCCCC=CCCC[C@@](C)(C(=O)N[C@@H](Cc2ccc(O)cc2)C(=O)N[C@@H](Cc2ccc(O)cc2)C(=O)N[C@@H](C)C(N)=O)NC(=O)[C@H](CC(N)=O)NC(=O)[C@H](Cc2ccccc2)NC(=O)[C@H](C)NC(=O)[C@](C)(CC(=O)O)NC(=O)CNC(=O)[C@H]([C@@H](C)CC)NC1=O)[C@@H](C)CC
B13: SEQ ID NO: 1630 (peptide)
peptide: Ac-WIAQALR[R8]IGDAFN[S5]YYA-NH2
modifications: staple 8-15
SMILES: CC[C@H](C)[C@H](NC(=O)[C@H](Cc1c[nH]c2ccccc12)NC(C)=O)C(=O)N[C@@H](C)C(=O)N[C@@H](CCC(N)=O)C(=O)N[C@@H](C)C(=O)N[C@@H](CC(C)C)C(=O)N[C@@H](CCCNC(=N)N)C(=O)N[C@]1(C)CCCCCCC=CCCC[C@@](C)(C(=O)N[C@@H](Cc2ccc(O)cc2)C(=O)N[C@@H](Cc2ccc(O)cc2)C(=O)N[C@@H](C)C(N)=O)NC(=O)[C@H](CC(N)=O)NC(=O)[C@H](Cc2ccccc2)NC(=O)[C@H](C)NC(=O)[C@H](CC(=O)O)NC(=O)CNC(=O)[C@H]([C@@H](C)CC)NC1=O
notes: also called Ac-WIAQALR$r8IGDAFN$YYA-NH2
B14: SEQ ID NO: 1634 (peptide)
peptide: Ac-WIAQALR[R8]IGDAFN[S5]YYA-NH2
modifications: staple 8-15
SMILES: CC[C@H](C)[C@H](NC(=O)[C@H](Cc1c[nH]c2ccccc12)NC(C)=O)C(=O)N[C@@H](C)C(=O)N[C@@H](CCC(N)=O)C(=O)N[C@@H](C)C(=O)N[C@@H](CC(C)C)C(=O)N[C@@H](CCCNC(=N)N)C(=O)N[C@]1(C)CCCCCCC=CCCC[C@@](C)(C(=O)N[C@@H](Cc2ccc(O)cc2)C(=O)N[C@@H](Cc2ccc(O)cc2)C(=O)N[C@@H](C)C(N)=O)NC(=O)[C@H](CC(N)=O)NC(=O)[C@H](Cc2ccccc2)NC(=O)[C@H](C)NC(=O)[C@H](CC(=O)O)NC(=O)CNC(=O)[C@H]([C@@H](C)CC)NC1=O
notes: as for B13

Chain of BCL-2 (P10415 1-217 limits assumed): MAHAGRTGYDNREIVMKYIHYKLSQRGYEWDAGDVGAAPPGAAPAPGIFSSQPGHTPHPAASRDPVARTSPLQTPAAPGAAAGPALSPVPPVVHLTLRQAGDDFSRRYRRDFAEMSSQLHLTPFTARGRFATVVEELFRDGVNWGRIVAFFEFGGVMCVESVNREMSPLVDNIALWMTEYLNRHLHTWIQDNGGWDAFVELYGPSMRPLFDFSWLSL

For one assay, the target named is T1, MCL-1 (UniProt Q07820 172-327, limits assumed).
T1 construct: also called Myeloid cell leukemia 1
T1 sequence (Q07820 172-327 limits assumed): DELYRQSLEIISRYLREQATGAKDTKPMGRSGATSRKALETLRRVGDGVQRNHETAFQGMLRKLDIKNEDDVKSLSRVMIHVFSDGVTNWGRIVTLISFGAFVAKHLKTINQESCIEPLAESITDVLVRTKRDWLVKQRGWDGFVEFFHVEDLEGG
Description: Ki table, method not stated.
The molecule B1 gave a Ki of 73.8 nM.
Turning to B2, the Ki was found to be 7.5 nM.
Regarding B3, affinity was put at a Ki of 3.8 nM.

The target of another assay is BCL-XL (UniProt Q07817 1-209). Description: Ki table, method not stated.
Chain of BCL-XL (Q07817 1-209): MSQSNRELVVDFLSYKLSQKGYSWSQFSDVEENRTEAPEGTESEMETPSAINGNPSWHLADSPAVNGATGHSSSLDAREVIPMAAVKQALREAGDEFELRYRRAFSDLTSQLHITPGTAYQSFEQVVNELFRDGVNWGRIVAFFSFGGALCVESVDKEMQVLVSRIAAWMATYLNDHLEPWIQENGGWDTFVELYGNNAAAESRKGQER
Take B1: the affinity, expressed as Ki, was 386 nM.
On the same count and under the same terms, to B4 belongs 309 nM.
The molecule B5 yielded a Ki of 472 nM.
The same measure, in the same setting: to B6 belongs 374 nM; to B7, 256 nM; to B8, 243 nM.
On the same count and under the same terms, to B9 belongs 9.2 nM.
As for B10, affinity was put at a Ki of 136 nM.
Take B11: the Ki amounted to 28.8 nM.
On the same count and under the same terms, to B12 belongs 15.5 nM; to B13, 213 nM.

Another assay addresses BCL-2 (UniProt P10415 1-217, limits assumed). Description: Ki table, method not stated.
On to B4, for which the Ki turned out to be 519 nM.
In the case of B5, affinity was put at a Ki of 804 nM.
The molecule B6 registered a Ki of 878 nM.
The same measure, in the same setting: with B7 the figure was 319 nM.
Still for that read-out and setting: with B8 the figure was 272 nM; with B14, 410 nM.
Same read-out and setting: to B9 belongs 23.5 nM; to B10, 231 nM; to B11, 88.2 nM.
With B13, the Ki was found to be 424 nM.
